Test results reported in patent EP3240566B1 (Development Center for Biotechnology, dated 2020).

Columns and labels:
[1] = biological target: T1, human ENO1 protein (human, UniProt P06733 1-434); assay: ENO1 binding ELISA
T1 construct: also called ENOl; alpha-enolase

[2] = biological target: T1, human ENO1 protein; assay: SPR, BIAcore 2000, ENO1 injected, 25 degree C, 1:1 Langmuir

T1 sequence (P06733 whole entry): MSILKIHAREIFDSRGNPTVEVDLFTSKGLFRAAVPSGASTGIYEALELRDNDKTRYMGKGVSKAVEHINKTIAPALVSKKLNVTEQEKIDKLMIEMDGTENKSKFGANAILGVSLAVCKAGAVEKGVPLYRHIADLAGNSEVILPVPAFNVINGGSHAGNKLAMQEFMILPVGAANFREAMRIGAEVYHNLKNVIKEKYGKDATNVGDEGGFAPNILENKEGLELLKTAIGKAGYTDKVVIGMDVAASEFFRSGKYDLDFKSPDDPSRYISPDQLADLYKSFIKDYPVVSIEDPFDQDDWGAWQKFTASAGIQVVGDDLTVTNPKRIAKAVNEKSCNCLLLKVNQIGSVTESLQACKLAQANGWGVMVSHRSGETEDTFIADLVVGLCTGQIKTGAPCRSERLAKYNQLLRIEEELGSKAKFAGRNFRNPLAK

Kd [1]	Kd [2]	Binder
0.0365 nM	0.219 nM	hum EN10 mAb IMGT (antibody, IgG1, V domains shown, also called humanized EN10 mAb IMGT; Hum EN10 IMGT) VH: QVQLVQSGAEVKKPGASVKVSCKASGYTFTSCVMNWVRQAPGQGLEWMGYINPYNDGTKYNEKFKGRVTMTTDTSTSTAYMELRSLRSDDTAVYYCAREGFYYGNFDNWGQGTLVTVSS VL: DIQMTQSPSSLSASVGDRVTITCRASENIYSYLTWYQQKPGKAPKLLIYNAKTLPEGVPSRFSGSGSGTDFTLTISSLQPEDFATYYCQHHYGTPYTFGQGTKLEIKR
	0.5 nM	hum EN10 mAb 4D5 (antibody, IgG1, V domains shown, also called humanized EN10 mAb 4D5; hum ENO10mAb 4D5) VH: EVQLVESGGGLVQPGGSLRLSCAASGYTFTSCVMNWVRQAPGKGLEWVAYINPYNDGTKYNEKFKGRFTISRDDSKNTLYLQMNSLRAEDTAVYYCAREGFYYGNFDNWGQGTLVTVSS VL: DIQMTQSPSSLSASVGDRVTITCRASENIYSYLTWYQQKPGKAPKLLIYNAKTLPEGVPSRFSGSGSGTDFTLTISSLQPEDFATYYCQHHYGTPYTFGQGTKLEIKR
